Source: PMC8139980, “Qki activates Srebp2-mediated cholesterol biosynthesis for maintenance of eye lens transparency”

T1: Qki-5 full-length (UniProt Q9QYS9 1-341)
T1 sequence: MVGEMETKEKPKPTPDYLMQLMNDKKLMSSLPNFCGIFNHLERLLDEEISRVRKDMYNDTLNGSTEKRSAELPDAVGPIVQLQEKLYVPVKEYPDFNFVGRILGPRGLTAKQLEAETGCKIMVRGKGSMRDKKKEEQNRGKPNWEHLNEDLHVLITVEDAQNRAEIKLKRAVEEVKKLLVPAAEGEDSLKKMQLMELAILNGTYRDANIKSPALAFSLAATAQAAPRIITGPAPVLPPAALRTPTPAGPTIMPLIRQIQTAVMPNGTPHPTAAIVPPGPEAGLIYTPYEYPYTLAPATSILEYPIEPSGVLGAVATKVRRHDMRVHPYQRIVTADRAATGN

T2: Qki-5 STAR domain (UniProt Q9QYS9 7-214)
T2 sequence: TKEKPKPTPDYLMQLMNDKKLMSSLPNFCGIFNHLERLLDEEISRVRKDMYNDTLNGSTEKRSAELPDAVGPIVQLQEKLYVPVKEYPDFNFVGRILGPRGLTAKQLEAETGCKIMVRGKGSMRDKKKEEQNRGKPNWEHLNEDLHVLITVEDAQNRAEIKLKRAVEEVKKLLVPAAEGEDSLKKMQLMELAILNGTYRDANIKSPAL

B1: QDE5-m (ssDNA)
DNA: CAGAGCGCGCG
B2: QDE4 (ssDNA)
DNA: GGGGTAAGGGG
B3: QDE1 (ssDNA)
DNA: CCAGTAACCAG
B4: QRE2 (ssRNA)
RNA: UUCACUAACAA
B5: QDE2 (ssDNA)
DNA: CTTACGCTAAG
B6: QDE3 (ssDNA)
DNA: CCTGTAACTGG
B7: QDE5 (ssDNA)
DNA: CAGATAACGCG
B8: QRE1 (ssRNA)
RNA: CUUCUUAAUAUAACUGCCUUAAACUUUAAU

Assays:
Qki-5 full-length [1] = target: T1, Qki-5 full-length; assay: MST; MST: 20 nM Atto488-protein, PBS with Tween-20 (0.1% in 2x protein stock), 25 C; ITC: 50 mM Tris pH 7.5, 150 mM NaCl, 20 C; conditions: protein: recombinant; tags: N-terminal Trx-His6 (PreScission site); Atto488-NHS labeled for MST; chain copies: 2
Qki-5 STAR domain [2] = target: T2, Qki-5 STAR domain; assay: ITC; text says KH domain of Qki; assayed construct is STAR; MST: 20 nM Atto488-protein, PBS with Tween-20 (0.1% in 2x protein stock), 25 C; ITC: 50 mM Tris pH 7.5, 150 mM NaCl, 20 C; conditions: protein: recombinant; tags: N-terminal Trx-His6 (PreScission site); chain copies: 2
Qki-5 full-length [3] = target: T1, Qki-5 full-length; assay: ITC; Kd only in figure; MST: 20 nM Atto488-protein, PBS with Tween-20 (0.1% in 2x protein stock), 25 C; ITC: 50 mM Tris pH 7.5, 150 mM NaCl, 20 C; conditions: protein: recombinant; tags: N-terminal Trx-His6 (PreScission site); Atto488-NHS labeled for MST; chain copies: 2
Qki-5 STAR domain [4] = target: T2, Qki-5 STAR domain; assay: as above; conditions: protein: recombinant; tags: N-terminal Trx-His6 (PreScission site); chain copies: 2
Qki-5 full-length [5] = target: T1, Qki-5 full-length; assay: MST; Kd only in figure; MST: 20 nM Atto488-protein, PBS with Tween-20 (0.1% in 2x protein stock), 25 C; ITC: 50 mM Tris pH 7.5, 150 mM NaCl, 20 C; conditions: protein: recombinant; tags: N-terminal Trx-His6 (PreScission site); Atto488-NHS labeled for MST; chain copies: 2

Binder | Kd (Qki-5 full-length [1]) [µM] | binding result (Qki-5 full-length [5]) | further results
B1 | 83 |  | 
B2 | 81 |  | 
B3 | 2.01 |  | Kd (Qki-5 STAR domain [2]): 11.9 µM
B4 |  |  | binding result (Qki-5 full-length [3]): binds; binding result (Qki-5 STAR domain [4]): binds
B5 |  | binds | 
B6 |  | binds | 
B7 |  | binds | 
B8 |  | binds | 
